A short description of the data set: label from the status in PepcDB records.
Take “XRKPILAALTLAGLGLAQEFITIGSGSTTGVYFPVATGIAKLVNDANVGIRANARSTGGSVANINAINAGEFEXALAQNDIAYYAYQGCCIPAFEGKPVKTIRALAALYPEVVHVVARKDAGIRTVADLKGKRVVVGDVGSGTEQNARQILEAYGLTFDDLGQAIRVSASQGIQLXQDKRADALFYTVGLGASAIQQLALTTPIALVAVDLNRIQAIAKKYPFYVGFNIPGGTYKGVDVTTPTVAVQAXLIASERLSEETVYKFXKAVFGNLEAFKKIHPNLERFFGLEKAVKGLPIPLHPGAERFYKEAGVLK”: the protein production result is given as “not failed”.
The same measure for “MVLGEFAPWRLWSLAGSAKDWRGSKQPRAMTDLVTNQAWTLIDNGRAADALRLTTGPVALPQASAGLLMAHAAALKALGRTDEALTFNRRAVARAPGDRFSWYNLAATLGDLALDDEAEGAARKTIALGLDVPEVRLVLGKALQGLHRYDEAEATFVRALAARPSDATVHLNLAQLRWMRSGRSDEALAPLDAAIARHPADVTLRTIRSNVLTFAGDHAGADATLEDALTRAPGDLAVRIAAARAAGAVGDRARMLAHAREAARLAPGALESQTVLCEALLAAGQADVAARTAEALVAAAPDDQYALVLRNTAWRITGDAQGDLFRDYAALVRTDRLETPEGWDSLDAFLDALRDRMLELHDLKTHPLNQSLRGGSQVPSLDRSRDPLVQAFFACAHKAVARYIEALGAGEDPIRRRRASDFAFAGGWSVRLRSEGFHADHVHPRGWISSAFYLDLPGRFDDETTRAGWLRFGRPGCLTEPALEAEHFIKPERGTLALFPSCLWHGTQPFTDADHRLTIAFDVVPR”: “failed”.
In the case of “MFKDKKMLKYIVIYSIIAFGILLTFNMVKDEMLYEKVDYSTFMQMLDKKEVKSVNFSGNQIEITPSDSSNLKGKILYTTNPAVAGITQPDLIKDLTAAGVGFNVTKPENYQLLGLLMSWVFPLILIFFVGRMMFSKMNNKMGGGVMSFGKNNAKLYAENETGITFKDVAGQDEAKESLVEIVDFLHDTRKYVEIGAKLPKGALLVGPPGTGKTLLAKAVAGEAKVPFFSMSGSDFVEMFVGMGAARVRDLFKQAEEKAPCIVFIDEIDAIGKSRDGAIQGNDEREQTLNQLLTEMDGFDSSKGVVILAATNRPEVLDKALLRPGRFDRRIIVDRPDLIGREEILKVHSRDVKLSDDVSLEEIAKSTPGAVGADLANIVNEAALRAVKHGRKFVIQEDLDEAVEVIIAGQEKRDRILSPKEKKIVAYHEVGHALVAALLNNTDPVHKITIVPRTMGALGYTMQLPEEEKYLVSKEEMIDQISVMLGGRAAEEVVFNSITTGASNDIERATQSARNMITIYGMSERFDMMALEAMSNRYLDGRPVRNCSETTAAIADEEVLQVIKKAHEKSIKILIENRELLDEITGVLLDKETIMGDEFMEIVYSKYPEKREADEKAKKEIQSLREQALAKRKEKEEAIKKAREEALRLEEEQRKQAELKAMIEAQEEAAKLARANNEANNDDLDSSKENEEVKSNVNDRATEEKKDDSSTNNKVDGE”, the protein production result is “failed”.
The same measure for “MAEKRTLIAVIADEDTTTGLLLAGIGQITPETQEKNFFVYQEGKTTKEEITDKFNHFTEERDDIAILLINQHIAENIRARVDSFTNAFPAILEIPSKDHPYDPEKDSVLKRVRKLFGE”: “failed”; for “MQSSQVKSAMRALEIMEFFRAVKQPRSMSEISIALGYPQSSTTVLLKTLISLGYLNFNRKERLYFPTLKVSALGDWIANSLFSSRDILEVLQDIHMETGETVAIATKNDIYLQYIQIIESVHALRFHVDENAIRPLTMSSNGWMLMSTMNDKAIDNTVRRANTITQKDGIRFEVDDMMARIRQVREQGYASAEHIPFVGGGTICVLLPMTIQGQPVTMGLGGALDRIKQNYDRYLELLLNGVQQLKKSDSFHQPIELAH”: “failed”; for “MSSSGTSITCEVGLQLIVPDRAPVPLVARLDYSVDDPYAIRAAFHVGDDEPVEWIFARELLTVGIIRETGEGDVRIWPSQDGKERMVNIALSSPFGQARFHAQVAPLSEFLHRTYELVPAGQESDYIDIDAEIAEHLS”: “not failed”.
For “MADSESKIYHERQRLQFCLLHCLNNLFQDKDAFTKESLNSIAEKLETNDPNKETWTPLSFVLKPHHNTITGNYDVNVMITALEGKGKSVVWHDKRIGASSIDLDDADTLMGIVLNVPVKRYGGLWRSRHWVVVRKINGVWYNLDSDLVVPQLFRDDDEVRGFLDQNLSLDVIGLIWNLPYNANQLPLASNYRVVITHWSDLNGMFSHVTNYPLDFDVYPQVSSKVSAIYKATGTKRFNANTRPVTPGKQSSVKGPYYKNPGCTTSCGLRLPRKTECTAARLIKDLSCKFVMGLRLVVMRKKKKKRSPPLKKASSSGISQPSVISVVNDNNHRSAAIEDCIQFINSSSSFTRSNSTCGSKS”, the protein production entry was “failed”.
For “MPKTSHPFQLSLLALAVSAVLVSGCNSSDNDDDLATEAQVTGLTLEFAGRYSTGQFDESAAEITAFDPASRRAFVVNALSGAVDVLDMSDPVNPAKIDTLTVADIAADAVVNSVAVANGLVAVAVESNPKTDPGYVAVFGAADLQLRDSIQVGAQPDMVTFTPDGQYVLAANEGEPSDDYQVDPEGSISVVDVSNPASLTVRIADFLAFNSQESDLKASGVRIYGPGATVAQDLEPEYITVSADSRAAWVSLQENNALAKLDIDTATVTGILPLGFKDYGVEGQGIDASDDDGVINIQRWPGVVGIYHPDAIDSYQANGETFIVTANEGDARAWGEDDADYWNGDSSRGFVEELRVKHLVHPDGFARRIGDDMPSQLTALAEGALLNPSVFDYCGATAGAANACRDDDQLGRLNISWVQGYRVDENGAPVMFNASGAEDPDGTLLMYDQLYSYGTRSLAIWNEDGELVWDSGDAIEQFLASEDCRLGTARSIPCSDHFNSAHDEGMAFDSRSDAKGPEPEAVTVATFGNKTFAFLGLERMGGILVYDVTDPASPVQVDYLNTRDDWTTVDTASVLETAGDLGVESITVVAADDSPTGEPLLITGNEVSGTTAIYRVKLELTD”, the protein production entry was “failed”.
As to “MTMFGKIFSKKTPKTDIKSNGEALNASEIEQFIKDTLSHYISDNFPQGVLAVCQQLSITQKKKITIKLLMPFVCQGELDLLAQTLSENLARTVNFEIDLAIKPVRQFSLGNDKNKAGQEGMLQGKVANIIAIASGKGGVGKSTTTVNLAYALMCEGARVGILDADIYGPSIPSMLGLKNEKPSSSDGKLMTPVDAKGLSAMSIGFLVDEADATVWRGPMASSAFNQLLNETDWPELDYLLIDMPPGTGDIQLTLAQKVPVAAAVIVTTPQDIALIDAVKGIAMFDKVKVPVLGIVENMSYHLCENCGHKSHIFGEAGGEHMAEDHETKLLGQLPLDITIRQDADFGESDIIENSAGEIANHYRKIARNVSAQLFLQCDTASPLTATVAHKALEHHHHHH”, the protein production result is “not failed”.
The same measure for “MSISRRDFNKLLLAGAAGSAFGLFGSGNTAFAARKRVVVIGGGFGGAATAKYLKKLDPTLAVTLIEPKPAFVTCPFSNWVLGGLRTMKDITHTYTALRTRHGVNVIADRVVSVDAAKGTLRLAGGRVIGYDRLVVSPGIDFKYDTIPGYSQKIAKSKMPHAWQAGPQTILLHRQLQAMKNGGTVVICPPDNPFRCPPGPYERASLIAYYLKQHKPKSKIVILDAKEKFSKQGLFTKGWESRYPGMIELRGSTGGGKVLGVDAKAMTVETDLGAVKGDVINVIPAQKAGKIAFEAGLTNEKGWCPVNPSSFESTIHQGIHVIGDACIAGAMPKSGFAASSQGKVAAVAIINLLRGQEPAPPSLVNTCYSLIGPKYGVSVAGVYQLSPTGIVEIPGSGGRLRPMPATNSWNRRRFSPKAGTPISARISGDKPLDSCGVPAVNHQAPLPLTHKATPDCRKR”: “failed”; for “MDPAGASVASAIGGEGEKFAVGNIYSVKVITGDEFRGIGTKPRPGHLKNTRMVNASFITGLSYLGKTEDPLDSDNFSVDLNGLRAKEALAIRQAEADAERMGVGVTAEAQSIFDALSKTLPVQWENSDILVMKEVRVRSPYLSDCVFGGTDAANNRVKKVLELERRRLQLFGT”: “failed”; for “MKWPWWPVCVPLSKRLTLPLPSTANPVVQPSRLALACANRLFEAADNRERFLQALMTPPAYPATVLWCGEPAAALPFAALPPLPWQPPWVSRFVAGSPTGQHPLHAAGAYYCLDSSSVFAAVPLLTLPQEPSLVIDVCAAPGGKSLFAWRSLHPRYLICNETIGKRVGKLIGNLKRCRVHPVGVTSWDSEVLAAEFQGTADVVIVDAPCSGQSLLAKGQKAEGCFHPLTIRHNQRRQKRILAAATTLVRPGGWLLYSTCTFSQDENEDVAAWLMAKFPHLLPQPVPALAAYQSHLAAFPCYRLWPHQGEGAGAFTILWQHQGLEHHHHHH”: “not failed”.
Turning to “MDFVPKILGNVVLLLSAGLNWTAMRVFAGRRPHVPGLLAGAGIWLILCVVPAFYQSMPVRVSVYSLLAAAYGVLTLLEFWRSRQQLEVAYMPAVVLTLLHTMYYIVRAVVDQGVAMDQALKGYGAGVPLFSFMLFESMLYVIGIAYVTLCMVKERVELRFKAAAFCDALTGIGNRRAFMVNGERMLIECQRRCSPMALLLCDLDHFKRLDDAYGHQTGDQVLVAFSQVLAETLGTKDVYARIGGEEFACLLAATDEQAAVTVAERVRQAFARLPLLEPGLLSVSIGVVSSETRGYDLPRLLSLADEALYDAKHQGRNRVHTVSRSALELQPD”, the protein production entry was “failed”.
The same measure for “MSPTSMYIAWGWKDIIPQLPALIHAFQTSEMNTPKMRRLCKFTALPEAMNNIGDRSDVYSFRIFLGTIITVKVSYETLDRLTARHTSLRCYRVACLRIKYAYYTNNNASPGHSFNIKLNIDTGVKGSI”: “failed”.
Consider “MKSGIGVGLKKEHLKIQINNSGVLTITGGCPVDQTKTIRFMKETKVAKDCKRNEIRAKFSKGVLYVTMPKTIPIAAGLSVSLKGATPQHQTPKTDEGMRNVANCSSEFYSKFGSLKQRLWRKTVVEGVAAVVVVAAAVLGVVKAYQYFMASPV”, for which the protein production entry is “failed”.
With “MHAPDALPGCAPVSPAPGYHGAPAVAGHAPTLGVTASMSSITLFQAPPPEAIQSQIQQMVVDYITDVSAVAIAPSNPLYNLYQYGVGYEVHLYLQAMDGSRGIAVELVVATDPQAPDQVLGFTLYLPVKDDPQACAVAYMAVLQGHRRQGIARQMLQAMLARYPHAELACNVAKVGCFEALGFQLLGARGPQVLMNTRDHGSDGLLAVLDVVTIYQSVEVRQIHTYLLAQHGRKAMLEAEKKRDRQLDQMTRQAQALVRERLGEAALYRSRAPQLIN”, the protein production entry is “failed”.
The same measure for “AKGSMIQFDAPDGKKANAYMVKASSPSTKYVFLIHEWWGLNDYIKKDADKLYADLGGNVNIMALDLYDGKVTANRDSAAAYMGAASATRIGSILNGAFMFAGDKAEIISMGWCFGGGWALQSSILAGNKSKGTIMYYGMTEKDPVKLAGLKGDVLGIFGSKDKWINPEMVAAFDKDLTAAGKKHTIKSFDADHAFANPSNPQFNKAYTEEAWGMSVAFIKKAFG”: “failed”.

Values taken from a protein production outcome set (Wang et al. 2014).
